Results from patent US20090087494A1 (BOARD OF REGENTS OF THE UNIVERSITY OF NEBRASKA, published 2009).

Tests used:
[1] = target: T1, bovine LHRH receptor (bovine, UniProt P32236 1-328); assay: displacement of 125I-deslorelin, bovine nasal MTP region membranes, high affinity site (IC50 I)
T1 construct: whole, on cells; The receptor stood in crude membrane preparations of bovine tissue homogenates, not on intact cells; also called GnRH receptor
T1 sequence (looked up): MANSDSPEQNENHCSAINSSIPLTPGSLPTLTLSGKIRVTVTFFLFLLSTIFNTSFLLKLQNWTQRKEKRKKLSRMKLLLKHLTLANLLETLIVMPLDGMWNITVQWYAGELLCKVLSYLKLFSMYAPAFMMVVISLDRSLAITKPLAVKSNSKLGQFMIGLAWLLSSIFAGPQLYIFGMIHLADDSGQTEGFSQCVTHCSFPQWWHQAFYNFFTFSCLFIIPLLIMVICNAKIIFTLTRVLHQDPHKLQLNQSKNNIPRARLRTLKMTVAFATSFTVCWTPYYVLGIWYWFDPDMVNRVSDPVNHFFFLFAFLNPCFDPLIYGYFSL
Method: (§1) Competition Studies: To determine the amount of unlabelled deslorelin required to displace the radioactivity, competition studies were conducted. Briefly, membranes were incubated with 100,000 cpm of I¹²⁵ deslorelin in the presence or absence of unlabelled deslorelin (0.01-3,000 ng) in a total volume of 200 μl for 4 hr at 4° C. Assays were performed in triplicates. At the end of 4 hr, the incubation tubes were centrifuged at 10,000 g for 20 min at 4° C. to separate the bound fraction. Radioactivity was measured in the pellet using a Perkin-Elmer γ-counter. The same controls as in the kinetic and saturation studies were used. The experiment was repeated three times.

[2] = target: T1, bovine LHRH receptor; assay: displacement of 125I-deslorelin, bovine nasal ITP region membranes, low affinity site (IC50 II)
Method: as §1

[3] = target: T1, bovine LHRH receptor; assay: displacement of 125I-deslorelin, bovine nasal MTP region membranes, low affinity site (IC50 II)
Method: as §1

[4] = target: T1, bovine LHRH receptor; assay: displacement of 125I-deslorelin, bovine pituitary membranes, low affinity site (IC50 II)
Method: as §1

[5] = target: T1, bovine LHRH receptor; assay: displacement of 125I-deslorelin, bovine nasal ITP region membranes, high affinity site (IC50 I)
Method: as §1

[6] = target: T1, bovine LHRH receptor; assay: displacement of 125I-deslorelin, bovine nasal MTA region membranes, low affinity site (IC50 II)
Method: as §1

[7] = target: T1, bovine LHRH receptor; assay: displacement of 125I-deslorelin, bovine pituitary membranes, high affinity site (IC50 I)
Method: as §1

[8] = target: T1, bovine LHRH receptor; assay: displacement of 125I-deslorelin, bovine nasal MTA region membranes, high affinity site (IC50 I)
Method: as §1

B1: deslorelin (peptide)
peptide: EHWSYWLRP
modifications: pGlu at position 1; D-Trp at position 6; C-terminal ProNHEt (ethylamide)
notes: Synthetic LHRH analog, gift from Balance Pharmaceuticals; also called unlabelled deslorelin; unlabeled deslorelin
Work on B1 yielded an IC50 [1] of 0.112 nM, an IC50 [2] of 32.9 nM and an IC50 [3] of 42.1 nM. It also gave an IC50 [4] of 17.9 nM, an IC50 [5] of 0.102 nM and an IC50 [6] of 53.2 nM. It also gave an IC50 [7] of 0.031 nM and an IC50 [8] of 0.136 nM.
